Bridge positions count the residues as written; N and C are the ends.
Target: T1, human glucose-regulated protein GRP78 (human, UniProt P11021 19-654)
T1 construct: also called heat shock protein A5; HSPA5; source: Escherichia coli, recombinant; bought: Abcam
Test: SPR
Conditions: both partners purified

T1 sequence (P11021 19-654): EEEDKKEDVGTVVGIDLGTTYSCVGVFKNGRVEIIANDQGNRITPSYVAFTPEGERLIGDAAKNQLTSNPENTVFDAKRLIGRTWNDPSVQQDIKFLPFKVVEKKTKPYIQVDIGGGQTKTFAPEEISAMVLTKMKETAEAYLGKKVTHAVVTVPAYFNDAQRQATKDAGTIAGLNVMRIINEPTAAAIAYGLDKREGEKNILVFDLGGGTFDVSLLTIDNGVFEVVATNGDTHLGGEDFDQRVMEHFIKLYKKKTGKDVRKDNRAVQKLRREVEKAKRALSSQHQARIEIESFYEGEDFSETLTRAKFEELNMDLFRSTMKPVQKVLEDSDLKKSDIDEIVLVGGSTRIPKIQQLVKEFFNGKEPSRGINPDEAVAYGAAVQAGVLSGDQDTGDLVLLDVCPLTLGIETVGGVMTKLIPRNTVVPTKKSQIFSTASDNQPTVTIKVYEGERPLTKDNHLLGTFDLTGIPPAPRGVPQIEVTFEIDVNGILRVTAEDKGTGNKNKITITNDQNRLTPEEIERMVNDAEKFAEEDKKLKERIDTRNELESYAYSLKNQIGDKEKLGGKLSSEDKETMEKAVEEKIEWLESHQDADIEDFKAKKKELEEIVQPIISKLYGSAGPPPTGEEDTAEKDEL

Binder	IC50	Kd
H-CNGVEGFNC-NH2 (disulfide 1-9; SMILES CC(C)[C@@H]1NC(=O)CNC(=O)[C@H](CC(N)=O)NC(=O)[C@@H](N)CSSC[C@@H](C(N)=O)NC(=O)[C@H](CC(N)=O)NC(=O)[C@H](Cc2ccccc2)NC(=O)CNC(=O)[C@H](CCC(=O)O)NC1=O, also called Wuhan loop peptide; Wuhan peptide) [LCP W, loop-derived cyclic peptide based on spike residues 480-488 of the Wuhan strain]	763 nM	
H-CNGVAGFNC-NH2 (disulfide 1-9; SMILES CC(C)[C@@H]1NC(=O)CNC(=O)[C@H](CC(N)=O)NC(=O)[C@@H](N)CSSC[C@@H](C(N)=O)NC(=O)[C@H](CC(N)=O)NC(=O)[C@H](Cc2ccccc2)NC(=O)CNC(=O)[C@H](C)NC1=O, also called Omicron loop peptide; Omicron peptide) [LCP O, loop-derived cyclic peptide based on spike residues 480-488 of the Omicron strain]	693 nM	2000 nM

Reference: publication PMC11497264, “SARS‐CoV‐2 Spike Protein‐Derived Cyclic Peptides as Modulators of Spike Interaction with GRP78” (Chembiochem, 2024)
